In the DeepSol protein solubility set:

test: soluble on expression in E. coli; label from the status in PepcDB or PDB records

Sequence	soluble on expression in E. coli
MAHHHHHHMYLYHSNKCAIKKGIPFFRNVASICFLRKAQNGEEVKRRKVFCSAKFISTISEGRETGCGQANTDQPSTPLGSYTEKSSYKDIKIVENEKEGNDAAEEINQNDIIAVDFEGTNLGKYGKVCIMQVYTEERTREGTPPQSECISREKYYIFDLLKMSVIKSVKKIIENKKTLKLVHDCREDSSALYNQLGIKFENVYDTSRAHMLLMEKNKSNDIYQVSFLQLLNDYLGIKDECLSSIKKEMYKNEKIWQVRPLSKMSIIYALKNVKYLFPLYRIFDNMLPKKIVLEKSKDFVNYCLINSRYKLPVDLAKRGNIVQAMLVSKSMLNCVFKLNSTRKGIACTPSSVAQFRDVKVGDVVLCVVSNKSIDQKILYLCKHDDVFDYWNLKERPRGKFKPSIHESATDPMIQFCDEEQPA	not soluble
SLDLNDTYSGKREPFSGDHSADGFEVTSRSEMSSGSEISPVSEMPSSSEPSSGADYDYSEEYDNEPQIPGYIVDDSVRVEQVVKPPQNKTESENTSDKPKRKKKGGKNGKNRRNRKKKNPCNAEFQNFCIHGECKYIEHLEAVTCKCQQEYFGERCGEKSMKTHSMIDSSEG	not soluble
MSEAETGEPNGFRSCYDKLRKAVGNIPMDASKSTKLHNLSSRKISEILPNLYLSGRTVSQNSELLKEKNITTVINVSDREVVNYKNNQKFIKNYRFYAMSDTASAKFDGIIEEAVRIIHDSRSKEEGVLVHCFLGVSRSATLVAFYLISALSINWRDAVDFIHHRRFSANPNFGFLHQLKVYSTTKAKEFRNQLISERCLRMRESDKDIIKKYLPLAVFEL	not soluble
MRGKAMNIQRFIEKRKARGLSQSELAKGICTQVTVSRFEKNGQVPTLKILIQLCNRLELPLGELFPRVGIKQPEILEKMEEAEFFLITSEHDQLQTILKNIPFDEIKDSQLLLEYYYLQGFVMIFQNASLMDCLFTFEKLLFEEQKYTSDIYRLLAFTGIGMAYAKEGEIEKAEFYFNKVFKEIYLYTIQSMEDTWRVLNVVFHCGVFYAEKGDLETSDALLEYAISICSDNHVTYYLARAAFQLAKNALAEEKPQEQILELLQDARAYAKINKNRILLEAIQTLKETILSKGN	not soluble
MGSDKIHHHHHHMIPTFVVWSQSMFNDAIVYDRYGPPAAVLTLKRLPLAPLAGGRVRVRMRFAPVNPSDLIPVTGAYRHRTRLPAVAGYEGLGEVVAAPYGSRLAAGQRVLPLRGGGTWQRFIDLDETWLVPVPPAVDDLLAARGYINPLTAMLMLKRWPVAGKHLVLTAASSSCASLLGQWALAMGARSVSGIIRSPQHRARLEQAGIYPILDTDRALMEKVSQHSDLVFDAVGGELANTLLSVLPGSSTLISYGLLSGRPLTQTRGSATVRKFHLREALPTLSVAAWRAAFDEIWQRLPTTSQPPAQRIALNDWRAAIAAAGQPGRGGKILLDFTAG	not soluble
MHIAIIGAAGMVGRKLTQRLVKDGSLGGKPVEKFTLIDVFQPEAPAGFSGAVDARAADLSAPGEAEKLVEARPDVIFHLAAIVSGEAELDFDKGYRINLDGTRYLFDAIRIANGKDGYKPRVVFTSSIAVFGAPLPYPIPDEFHTTPLTSYGTQKAICELLLSDYSRRGFFDGIGIRLPTICIRPGKPNAAASGFFSNILREPLVGQEAVLPVPESIRHWHASPRSAVGFLIHGAMIDVEKVGPRRNLSMPGLSATVGEQIEALRKVAGEKAVALIRREPNEMIMRMCEGWAPGFEAKRARELGFTAESSFEEIIQVHIEDELGGSLK	soluble
MKKALFLVGLVFTAGVISSCGGVSSQRTYEGAAVGAAVGAAAGVLLDKENRWRGGVIGAALGAILGGTITEIAQRAAKEAAQNNKPVVYRAEDGSQMVRAEPVEKRGNCTLVKTKYYQNGKLVKVEEKEVCE	not soluble
GPGSMGTDKVMSEKLVLEKTKVKSLSDVQRLDMWGEGLTDISLVAKLPRLEVLALAANNVSSLKALQGCELLQELYLRKNKVANLREVTALRVLPTLSVLWLRDNPCAQHPYYREFVLHCCPGLRQLDGVEVTADERKAAAKRLTTKTLDEILGRSACADAASSPRPKKSSGAGSSPAKATDVTPSSTPGGVSDSTATIEERNASSRSVLFTTVAAQRAMLLSIVSLLSELTVESLELLQREVQERVEKQKEKLTKYVQENSQ	soluble
MSDMYDKINELYDRRREIELGGGDEKIEQQHAKGKLTARERIDLLLDEGTFVELNPFIEHRCTDFGLGEKKGPGDGVVTGYGKINGRTVFVFSQDFTVFGGALGEMHAKKITNIMDLAAKTGAPVIGLNDSGGARIQEGVLSLDGYGHIFYRNAIYSGVIPQISVIMGPCAGGAVYSPAITDFVFMVEKTSQMFITGPKVIEAVTGEKISAEDLGGARVHNTISGNAHFAAANEEEALAEVRRLLGYLPSNNNEKPPFGPIPDGDDYRPDLADVVPIDAVRPYDVRHVIAQVVDDGSFMEVQKDFAKNIVIGFARIKGEVVGLVCNQPKFMAGGLDIDSSDKAARFIRFCDSFNIPIITFEDVTGFFPGVKQEHGGIIRHGAKILYAYSEATVPKITVILRKAYGGAYVALNSKSIGADVVYAWPNAEVAVMGPQGAANIIFAGEIEKSPNPEETRAQKIAEYREKFANPYVAAKYGMIDDVIDPRDTRIKLIQALEMLRNKHEERPKKKHGNIPL	not soluble
MIIDEKRVQEIKNGETSLGIEFGSTRIKAVLIANDFSILASGSFEWETSLENGVWTYSIDEIWKGLQYSYQKLFAEVKEKYGVVLSKIGSIGFSAMMHGYMAFDNKGELLVPFRTWRNTMTEEAAKKLTDLFKFNIPERWSIAHLYQAILRNEPHVEKIDFLTTLAGYIHWQLTGEKVLGIGDASGMFPIDTQTHNYDKNMLETFKNLPEVKKHSLDLEKLLPKVLLAGENAGVLTLEGAKKLDVSGNLQPGIPLCPPEGDAGTGMVATNSVAPRTGNVSAGTSIFAMVVLEKPLNRVHPEIDIVTTPSGDLVAMVHANNGCSDLEAWVNIFQQFTEAINVDMRKDLLYMALYTQAFQGDPDCGGVLAYNYFAGENITGVSEGRPMVVRKAKSNFNLPNFMRAHLFTSLGALKIGMDILLKDEAVKLDKLLGHGGLFKTPIVGQAAVAGAVNAPVSVMETAGEGGAWGIALLASYLRSKENDSTLPEFLSKNVFAGYVAEEVQPDPKDVKGFEEFIERYKKGIAIEQAAVEHLILEHHHHHH	not soluble
MIRELFEKEGFTLDEEQERKFSIYLQELLRWNKVHNLTSIKKPEEIVRRHFIDSVSVVRCFERIGLDLRGKHFADVGSGAGFPGVPLKIYLKDIKLTLIESVSKKCSFLEYLKIKLNEDYRVLCTRAEKVEEKFDVVLARALGEFEEVKEILEKLSIGYVFVYKGSKLKEEWLKDYKLCELSLSFMPKSYILWKKV	soluble
GSNGMSQLPAPVSVESSWRYIDTQGQIHGPFTTQMMSQWYIGGYFASTLQISRLGSTPETLGINDIFITLGELMTKLEKYDTDPFTTFDKLHVQTTSSDS	soluble
EDRVGERRIMIDKKEAIEHFRRHPGDGMIKLDLLTTAYNDINLIPPIYQPFLQDKQYFLGEVGQEPNTRMIYMSTFNQNGEEHPIILISLIDEIEITSTE	not soluble
MAHHHHHHMGTLEAQTQGPGSMRLTVVGANGRMGRELITAIQRRKDVELCAVLVRKGSSFVDKDASILIGSDFLGVRITDDPESAFSNTEGILDFSQPQASVLYANYAAQKSLIHIIGTTGFSKTEEAQIADFAKYTTIVKSGNMSLGVNLLANLVKRAAKALDDDFDIEIYEMHHANKVDSPSGTALLLGQAAAEGRNIMLKNVSVNGRSGHTGKREKGTIGFACSRGGTVIGDHSITFAGENERIVLSHIAQERSIFANGALKAALWAKNHENGLYSMLDVLGLNE	soluble
MHHRHLQVLRTDASGMPLEWIGYQEAAKLYYLEQVAYGCGSILFRLRGGINAKTGQRSRIEVNSIVATFGHANSGYKVDMGYVPPLNNAALFRRDGHICLYCGNLFRHSELSRDHIQPTSRGGSDTWNNVVTACKRCNNHKAGRTPEEAKMQLLAIPFTPTHAEYIYLQGRRVLADQMEFLKAHFPRKSPLHQRLSLEHHHHHH	not soluble
GMTSREDEIRDFLATHGYADWNRTPLAGDASSRRYQRLRSPTGAKAVLMDWSPEEGGDTQPFVDLAQYLRNLDISAPEIYAEEHARGLLLIEDLGDALFTEVINNDPAQEMPLYRAAVDLLIHLHDAQTPELARLDPETLSEMTRLAFSEYRYAILGDAAEDNRKRFEHRFAQILSAQLEGDMVFVHRDFHAQNLLWLPEREGLARVGVIDFQDAKLGHRAYDLVSLLQDARRDVPAQVEAQMIDHYIQATGVDESHFRSAYAVIAVQRNMRILGIFARLSQRFGKRHYIEFVPRVWAHFERGLAHPALASAAEEILNALPAPAPEVLERLRA	soluble
ELDWFARRGLKEPNLAELLDLVALGSVADVVPLDANNRILVHQGLARIRAGRARPGLRALLEVAGRPPVRITSTDLGFILGPRLNAAGRLDDMSLGIECLLCDDEALARDMAVQLDQLNQDRKAIEQGMQREALAQLKELSLEQLPFGLCLFDADWHQGVIGILASRLKERYHRPTIAFADAGDGSLKGSARSIPGFHIRDALDAVAARHPGLISKFGGHAMAAGLSLPQENFGAFSAAFDAEVRRQLAEEDLAGRLLSDGQLSIQEFHLELARALRQAGPWGQHFPEPMFHGVFQLVQQRIVGERHLKLVLKSECGSLQLDGIAFNIDREQWPNPTVRWAELAYKLDVNEFRGQESVQL	not soluble
MGSDKIHHHHHHMTKNNIAVKVDHVSKYFKLPVESTQSLRTALVNRFKGIKGYKKQHVLRDIDFEVEKGDFFGIVGRNGSGKSTLLKIISQIYVPEQGKVTVDGKLVSFIELGVGFNPELTGRENVYMNGAMLGFTTEEVDTMYQDIVDFAELQDFMNQKLKNYSSGMQVRLAFSVAIKAQGDVLILDEVLAVGDEAFQRKCNDYFLERKNSGKTTILVTHDMAAVKKYCNKAVLIDDGLIKAIGEPFDVANQYSLDNTDQIVEDKQEEEAAVQEEEQIVVDNLEVKLLSANRMTPRDSIRFEISYNVLADVGTYIALSLTDVDRNIWIYNDNSLDYLSSGSGKKRVFYECHLKSLNDIKLKLEVTVRDKQGQMLAFSSATNTPIISINRDDLEGDDKSAMDSASGLIQRNGQWQFS	not soluble
MGSDKIHHHHHHMLKRKIETFLAKWKKSEDRKPLVIKGIRQCGKTYIVQKFAKENYESVVYMNFILEPDKKSAFTGNIDVDTIILNLSALIQGSRFINGKTCIILDEIQECKEARTALKSFHIDGRFDVIATGSLLGVKGYDKSKKKKEEEEGQDSVPVGYETVIDMYPLDFEEFLWANGISDMVIDSVKSCFENESTVPDGIHKAMMELLYRYVIVGGLPEVVNCFLETKNIELIYKVQRNLIAEYEEDMVKYADDPDKPRIRECFESIPKQLAKENKKFQYSVVKKGGRASQYIGSIQWLEDAGIVRRCYNTQITELPLEGNSIKGSFKVYTTDIGILMAMLDYGTQADILKGNLLGYKGAIFENLMADFLCKSGQKLYYFHKDSGLELDFLVRFKGECVILEVKAKTGKAKSMTTVLKNKDVYYVNNAIKLGQYNVGCEGDILTIPLYMGFLVEDKLADVIIPDVDVSLLTTI	not soluble
MGVFNYEIETTSVIPAARLFKAFILDGDNLVPKVAPQAISSVENIEGNGGPGTIKKINFPEGFPFKYVKDRVDEVDHTNFKYNYSVIEGGPVGDTLEKISNEIKIVATPDGGCVLKISNKYHTKGNHEVKAEQVKASKEMGETLLRAVESYLLAHSDAYN	soluble
MSLRAVVTMGHGDLDQLVLHPDWPRPDPEPGEVLIRVGACGLNNTDVNTRSGWYSKTVTDATTGGAFDEVGEDDPTWGGAPITFPRIQGADVCGTIVAVGAGVDAARIGERVITDGWLRDADAPEDMNKTGYFGSERNGGFAEYTTIPSSNALDVNSTLSDAELATFSCSYSTAEGMLTRARVTADDTVLIPGASGGVGGALVQLAKRRGARVIAIASEGKHSDVAALGPDMILPRAPAHLRSALGDERITVVADVVGGPYWPSLIDILERGGRYTCSGAIAGPMVSLDLRTFYLRDLTFTGSTVIDLEVMPNIVRYIEEGAIKPSLAATYPLEDLRAAQSAFIAKEHTGNIVVTEGHHHHHH	not soluble
